Measurements reported in publication PMC10793706, “Genetically engineered IgG1 and nanobody oligomers acquire strong intrinsic CD40 agonism” (Bioengineered, 2024).

B1: APX005M-IgG1 (antibody, V domains shown)
VH: QSLEESGGDLVKPGASLTLTCTASGFSFSSTYVCWVRQAPGKGLEWIACIYTGDGTNYSASWAKGRFTISKPSSTTVTLQMTSLTPADTATYFCARPDITYGFAINFWGPGTLVTVSS
VL: DIVMTQTPSSASEPVGGTVTIKCQASQSISSRLAWYQQKPGQPPKLLIYRASTLASGVPSRFKGSGSGTEFTLTISDLECADAATYYCQCTGYGISWPIGGGTEVVVK
notes: VH of APX005M; constant region of the IgG1 heavy chain; IgG1; also called Sotigalimab; anti-CD40(APX); source: HEK293T, transfected, cell culture supernatant
B2: ADC-1013-IgG1 (antibody, V domains shown)
VH: EVQLLESGGGLVQPGGSLRLSCAASGFTFSTYGMHWVRQAPGKGLEWLSYISGGSSYIFYADSVRGRFTISRDNSENALYLQMNSLRAEDTAVYYCARILRGGSGMDLWGQGTLVTVSS
VL: QSVLTQPPSASGTPGQRVTISCTGSSSNIGAGYNVYWYQQLPGTAPKLLIYGNINRPSGVPDRFSGSKSGTSASLAISGLRSEDEADYYCAAWDKSISGLVFGGGTKLTVL
notes: constant region of the IgG1 heavy chain; IgG1; also called Mitazalimab; source: HEK293T, transfected, cell culture supernatant
B3: G28.5-IgG1 (antibody, V domains shown)
VH: DIQLQQSGPGLVKPSQSLSLTCSVTGYSITTNYNWNWIRQFPGNKLEWMGYIRYDGTSEYTPSLKNRVSITRDTSMNQFFLRLTSVTPEDTATYYCARLDYWGQGTLVTVSS
VL: DIVMTQNPLSLPVSLGDEASISCRSSQSLENSNGNTFLNWFFQKPGQSPQLLIYRVSNRFSGVPDRFSGSGSGTDFTLKISRVEAEDLGVYFCLQVTHVPYTFGGGTTLEIK
notes: VH of G28.5; constant region of the IgG1 heavy chain; IgG1; source: HEK293T, transfected, cell culture supernatant

Columns and labels:
[1] = molecular target: human CD40 expressed on HT1080-CD40 transfectants (human) (UniProt P25942)
human CD40 expressed on HT1080-CD40 transfectants (human), sequence (P25942 21-277): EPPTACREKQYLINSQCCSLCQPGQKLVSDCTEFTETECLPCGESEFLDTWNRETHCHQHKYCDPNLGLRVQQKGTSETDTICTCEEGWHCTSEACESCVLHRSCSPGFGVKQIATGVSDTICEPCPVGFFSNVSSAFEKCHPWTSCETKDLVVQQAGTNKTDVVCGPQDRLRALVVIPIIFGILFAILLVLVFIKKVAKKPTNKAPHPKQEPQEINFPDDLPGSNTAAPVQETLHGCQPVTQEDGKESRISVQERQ

[2] = molecular target: T1, CD40-GpL, the CD40 ectodomain with a C-terminal Gaussia princeps luciferase (GpL) reporter domain (Homo sapiens, UniProt P25942); experiment: plate binding assay with Gaussia luciferase (GpL) fusion proteins; plates coated with 1 µg/ml protein G, loaded with anti-CD40 antibodies (1 µg/ml, in medium); GpL-linked CD40 ectodomain and its deletion mutants added for 1 hour at 37°C; TNFR2(ed)-GpL values subtracted as unspecific binding; details: partners not purified
T1 construct: extracellular domain of CD40 with its cysteine-rich domains (CRDs); also called CD40(ed)-GpL; source: HEK293T, transfected, cell culture supernatant; not shown: Gaussia princeps luciferase (GpL), C-terminal, kept
T1 sequence (P25942 21-193): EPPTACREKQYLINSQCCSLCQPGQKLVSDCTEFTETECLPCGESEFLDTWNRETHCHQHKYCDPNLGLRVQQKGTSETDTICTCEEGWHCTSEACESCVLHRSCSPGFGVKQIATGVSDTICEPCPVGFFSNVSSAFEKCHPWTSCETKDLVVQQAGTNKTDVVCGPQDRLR

| Molecule | p100 processing and TRAF1 induction (western blot) in U2OS cells; concentration from which the response starts [1] [ng/mL] | binding result [2] |
| --- | --- | --- |
| APX005M-IgG1 (N297A-RGY) (antibody) | < 100 |  |
| B1 |  | binds |
| B2 |  | binds |
| B3 |  | binds |
